Results as given in paper PMC8860611.

Target: native CA lattice tubes (HIV-1, UniProt P12493 133-363)
Test: filter binding

B1: CA15-2 (1-104) (structured_RNA)
RNA: GGAAGAAGAGAAUCAUACACAAGAUCGACGUACCUCAGGGUGGUGUAUGACUGAGGUGAAGACUGUGAACCAUGGCAUGCGGGCAUAAGGUAGGUAAGUCCAUA
binding result: binds
